Assay results reported in CN111320685A.
“And” between values parts separate entries of the source, which are not always exact repeats. Equal entries are not always repeated.

Experiments:
[1] = biological target: H7N9病毒的HA蛋白(购自ACROBiosystems) (H7N9 influenza virus); test: ELISA, HA coated, supernatant of transfected 293F cells, anti-human IgG-HRP
[2] = biological target: H7N9病毒 A/Anhui/1/2013 (血凝素HA on virus) (influenza A virus A/Anhui/1/2013 (H7N9)); test: cell-based or functional assay
[3] = biological target: H7N9病毒的HA蛋白(购自ACROBiosystems) (H7N9 influenza virus); test: BLI (PALL Fortebio), 3F12 captured on protein A sensor, HA antigen in solution

B1: 抗H7N9全人源单克隆抗体3F12 (antibody, V domains shown)
VH: QVQLVESGAEVKKPGASVKVSCKASGYIFNSYDINWVRQATGQGLEWMGWMTPDSGDNGFAQKFQGRVTMTRNTSITTAYMELSSLTSEDTAVYYCANGTADCSSGGSCYTWFDPWGQGTLVTVSS
VL: SSELTQDPAVSVALGQTVRITCQGDRALRSYYASWYQQKPGQAPVLVIYGKTNRPSGIPDRFSGSSSGNTASLTITGAQAEDEADYYCTSRDNSGYHLVFGGGTKLTVLV
In the case of B1, the OD 450nm [1] is reported as 2.31 OD450 and 2.78 OD450 and 2.06 OD450, the 中和实验 IC50 (微量中和-ELISA, MDCK细胞) [2] is reported as 14.3 µg/mL and the Kd [3] is reported as 3.5 nM.
